Measurements from patent US20260216242A1 (ALMAC DISCOVERY, published 2026).

B1: D10 A06-hFc (S239/442C T366Y/Y407T), [G4S]3 linker, MC-vc-PAB-MMAE conjugate, #633 (Fc fusion, DAR 4)
chain 1: QVQLVESGGGLVQPGGSLRLSCAASGSIFSVNTMGWYRQAPGKQRDLVAVATSGGTIHYADSVKGRFTISRDNAKNTVYLQMNSLKPEDTAVYYCNLVVPYGMIAGDHDYWGQGTKVTVSSGGGGSGGGGSGGGGSEPKSSDKTHTCPPCPAPELLGGPCVFLFPPKPKDTLMISRTPEVTCVVVDVSHEDPEVKFNWYVDGVEVHNAKTKPREEQYNSTYRVVSVLTVLHQDWLNGKEYKCKVSNKALPAPIEKTISKAKGQPREPQVYTLPPSRDELTKNQVSLYCLVKGFYPSDIAVEWESNGQPENNYKTTPPVLDSDGSFFLYSKLTVDKSRWQQGNVFSCSVMHEALHNHYTQKSLCLSPGK
chain 2: QVHLVESGGGLVQAGGSLRLSCAASGRTFLSMGWFRQAPGKEREFVAAISWTGGSTGYADSVKGRFTISRESDKETMYLQMNSLKPEDTAVYYCAARGDVYYGGDDATRYKYWGQGTQVTVSSGGGGSGGGGSGGGGSEPKSSDKTHTCPPCPAPELLGGPCVFLFPPKPKDTLMISRTPEVTCVVVDVSHEDPEVKFNWYVDGVEVHNAKTKPREEQYNSTYRVVSVLTVLHQDWLNGKEYKCKVSNKALPAPIEKTISKAKGQPREPQVYTLPPSRDELTKNQVSLTCLVKGFYPSDIAVEWESNGQPENNYKTTPPVLDSDGSFFLTSKLTVDKSRWQQGNVFSCSVMHEALHNHYTQKSLCLSPGK
modifications: MC-vc-PAB-MMAE on Cys of S239C and S442C (EU numbering)
notes: Biparatopic knob-into-hole VHH-hFc heterodimer, DAR 4; The assignment of T366Y to the first named VHH and Y407T to the second follows the order of the name; No paragraph spells out this pair; also called D10-A06 hFc-vcPAB-MMAE; D10-A06-hFc-vc-MMAE
B2: D10 E06-hFc (S239/442C T366Y/Y407T), [G4S]3 linker, MC-vc-PAB-MMAE conjugate, #634 (Fc fusion, DAR 4)
chain 1: B1 chain 1
chain 2: QVHLVESGGGLVQAGGSLRLSCAASRRSFSEYAMGWFRQAPGKEREFVAAIGWSGVIEYADSVKGRFTISRDNAKDTVYLQMNSLKPEDTAVYYCAAGLGIRVVSQTPAYWGQGTQVTVSSGGGGSGGGGSGGGGSEPKSSDKTHTCPPCPAPELLGGPCVFLFPPKPKDTLMISRTPEVTCVVVDVSHEDPEVKFNWYVDGVEVHNAKTKPREEQYNSTYRVVSVLTVLHQDWLNGKEYKCKVSNKALPAPIEKTISKAKGQPREPQVYTLPPSRDELTKNQVSLTCLVKGFYPSDIAVEWESNGQPENNYKTTPPVLDSDGSFFLTSKLTVDKSRWQQGNVFSCSVMHEALHNHYTQKSLCLSPGK
modifications: MC-vc-PAB-MMAE on Cys of S239C and S442C (EU numbering)
notes: Biparatopic knob-into-hole VHH-hFc heterodimer, DAR 4; also called D10-E06 hFc-vcPAB-MMAE; D10-E06 hFc-vc-MMAE
B3: D10 E06-hFc (S239/442C T366Y/Y407T), [G4S]1 linker, MC-vc-PAB-MMAE conjugate, #677 (Fc fusion, DAR 4)
chain 1: QVQLVESGGGLVQPGGSLRLSCAASGSIFSVNTMGWYRQAPGKQRDLVAVATSGGTIHYADSVKGRFTISRDNAKNTVYLQMNSLKPEDTAVYYCNLVVPYGMIAGDHDYWGQGTKVTVSSGGGGSEPKSSDKTHTCPPCPAPELLGGPCVFLFPPKPKDTLMISRTPEVTCVVVDVSHEDPEVKFNWYVDGVEVHNAKTKPREEQYNSTYRVVSVLTVLHQDWLNGKEYKCKVSNKALPAPIEKTISKAKGQPREPQVYTLPPSRDELTKNQVSLYCLVKGFYPSDIAVEWESNGQPENNYKTTPPVLDSDGSFFLYSKLTVDKSRWQQGNVFSCSVMHEALHNHYTQKSLCLSPGK
chain 2: QVHLVESGGGLVQAGGSLRLSCAASRRSFSEYAMGWFRQAPGKEREFVAAIGWSGVIEYADSVKGRFTISRDNAKDTVYLQMNSLKPEDTAVYYCAAGLGIRVVSQTPAYWGQGTQVTVSSGGGGSEPKSSDKTHTCPPCPAPELLGGPCVFLFPPKPKDTLMISRTPEVTCVVVDVSHEDPEVKFNWYVDGVEVHNAKTKPREEQYNSTYRVVSVLTVLHQDWLNGKEYKCKVSNKALPAPIEKTISKAKGQPREPQVYTLPPSRDELTKNQVSLTCLVKGFYPSDIAVEWESNGQPENNYKTTPPVLDSDGSFFLTSKLTVDKSRWQQGNVFSCSVMHEALHNHYTQKSLCLSPGK
modifications: MC-vc-PAB-MMAE on Cys of S239C and S442C (EU numbering)
notes: Biparatopic knob-into-hole VHH-hFc heterodimer, DAR 4; also called D10-E06-hFc-vcPAB-MMAE; D10-E06 hFc-vc-MMAE

Key:
[1] = molecular target: T1, human ALPP (alkaline phosphatase, placental type) expressed on the surface of CHO cells (human, UniProt P05187 23-506); assay: cell-based or functional assay
T1 sequence (P05187 23-506 limits assumed): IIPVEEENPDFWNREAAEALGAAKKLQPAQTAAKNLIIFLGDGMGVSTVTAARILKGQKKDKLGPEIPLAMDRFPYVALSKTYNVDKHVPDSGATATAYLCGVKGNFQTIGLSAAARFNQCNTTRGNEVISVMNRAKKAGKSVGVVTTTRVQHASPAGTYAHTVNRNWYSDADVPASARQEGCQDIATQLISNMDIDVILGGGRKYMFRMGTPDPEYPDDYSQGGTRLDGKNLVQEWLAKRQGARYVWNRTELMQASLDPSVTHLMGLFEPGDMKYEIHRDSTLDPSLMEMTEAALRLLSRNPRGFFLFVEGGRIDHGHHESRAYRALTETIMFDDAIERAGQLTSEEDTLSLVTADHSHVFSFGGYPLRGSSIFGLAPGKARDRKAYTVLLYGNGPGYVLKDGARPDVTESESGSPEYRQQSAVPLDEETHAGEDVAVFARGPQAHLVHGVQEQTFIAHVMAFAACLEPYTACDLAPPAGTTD

[2] = molecular target: T2, human ALPI (intestinal alkaline phosphatase) expressed on the surface of CHO cells (human, UniProt P09923 20-503); assay: cell-based or functional assay
T2 sequence (looked up): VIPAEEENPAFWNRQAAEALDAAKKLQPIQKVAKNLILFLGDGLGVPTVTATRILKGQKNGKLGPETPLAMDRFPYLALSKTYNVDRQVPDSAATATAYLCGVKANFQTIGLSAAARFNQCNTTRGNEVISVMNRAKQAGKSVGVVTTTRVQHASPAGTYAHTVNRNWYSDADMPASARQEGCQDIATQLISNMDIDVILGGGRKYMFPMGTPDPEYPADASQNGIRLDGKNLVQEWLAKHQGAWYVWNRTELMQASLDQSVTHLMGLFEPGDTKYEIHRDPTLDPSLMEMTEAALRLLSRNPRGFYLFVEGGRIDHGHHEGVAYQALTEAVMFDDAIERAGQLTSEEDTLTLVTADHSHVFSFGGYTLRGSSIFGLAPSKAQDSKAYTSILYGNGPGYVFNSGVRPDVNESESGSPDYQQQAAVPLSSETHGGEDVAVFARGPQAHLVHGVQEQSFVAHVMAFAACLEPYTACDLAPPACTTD

[3] = molecular target: T3, human ALPL (tissue non-specific alkaline phosphatase) expressed on the surface of CHO cells (human, UniProt P05186 18-501); assay: cell-based or functional assay
T3 sequence (looked up): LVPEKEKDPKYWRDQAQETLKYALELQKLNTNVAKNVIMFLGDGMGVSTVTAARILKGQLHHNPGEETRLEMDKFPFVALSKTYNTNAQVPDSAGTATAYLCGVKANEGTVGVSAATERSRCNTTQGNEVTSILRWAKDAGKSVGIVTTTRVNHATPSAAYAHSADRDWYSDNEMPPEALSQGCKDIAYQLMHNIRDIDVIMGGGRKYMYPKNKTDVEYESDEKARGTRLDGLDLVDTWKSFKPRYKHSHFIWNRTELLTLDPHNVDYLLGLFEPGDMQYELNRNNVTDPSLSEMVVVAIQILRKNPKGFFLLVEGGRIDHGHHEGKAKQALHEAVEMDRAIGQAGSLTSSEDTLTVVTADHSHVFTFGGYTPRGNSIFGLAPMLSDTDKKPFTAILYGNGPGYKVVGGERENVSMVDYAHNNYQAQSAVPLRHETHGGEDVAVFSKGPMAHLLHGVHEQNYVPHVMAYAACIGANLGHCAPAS

[4] = molecular target: T3, human ALPL (tissue non-specific …); assay: flow cytometry, CHO-ALPL cells
[5] = molecular target: T2, human ALPI (intestinal alkaline …); assay: flow cytometry on CHO-ALPI cells
[6] = molecular target: T1, human ALPP (alkaline phosphatase, …); assay: flow cytometry on CHO-ALPP cells, apparent KD (KDapp)
Procedure, shortened: (§1)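 Cell-surface binding to CHO cells stably transfected with human ALPP, ALPPL2, ALPI or ALPL; cells detached with 0.1% EDTA/PBS, incubated with biparatopic VHH-hFc drug conjugates over a concentration range for 1 hr on ice. Bound agent detected with FITC anti-human Ab (30 min, ice, dark) by flow cytometry; KDapp derived from binding.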

[7] = molecular target: T4, human ALPPL2 (alkaline phosphatase, germ cell type) expressed on the surface of CHO cells (human, UniProt P10696 20-503); assay: flow cytometry on CHO-ALPPL2 cells, apparent KD (KDapp)
T4 construct: whole, on cells; The cell-surface form has none; also called CHO-ALPPL2; hALPPL2
T4 sequence (P10696 20-503): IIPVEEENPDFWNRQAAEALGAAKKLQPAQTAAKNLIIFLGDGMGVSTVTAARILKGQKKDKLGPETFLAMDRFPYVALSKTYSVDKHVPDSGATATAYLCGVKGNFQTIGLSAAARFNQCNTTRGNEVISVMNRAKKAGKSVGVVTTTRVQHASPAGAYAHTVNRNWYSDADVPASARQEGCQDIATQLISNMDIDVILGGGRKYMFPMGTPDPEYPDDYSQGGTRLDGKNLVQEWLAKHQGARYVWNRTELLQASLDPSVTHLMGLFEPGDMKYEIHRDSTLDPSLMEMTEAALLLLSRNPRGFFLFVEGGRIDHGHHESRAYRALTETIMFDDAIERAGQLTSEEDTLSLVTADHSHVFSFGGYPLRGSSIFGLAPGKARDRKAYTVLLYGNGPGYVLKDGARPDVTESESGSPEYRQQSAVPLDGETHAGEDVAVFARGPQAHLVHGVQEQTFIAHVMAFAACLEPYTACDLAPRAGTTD
Procedure, shortened: as §1

[8] = molecular target: T4, human ALPPL2 (alkaline phosphatase, …); assay: cell-based or functional assay
[9] = molecular target: T2, human ALPI (intestinal alkaline …); assay: flow cytometry, CHO-ALPI cells

Row | Binder | IC50 at 96 h, cell-killing of CHO-ALPP cells [1] [nM] | IC50 at 96 h, cell-killing of CHO-ALPI cells [2] [nM] | IC50 at 96 h, cell-killing of CHO-ALPL cells [3] [nM] | binding result [4] | MFI on CHO-ALPI cells at 350 nM as percent of MFI on CHO-ALPP cells (KDapp not-determinable) [5] [%] | Kd [6] [nM] | Kd [7] [nM] | IC50 at 96 h, cell-killing of CHO-ALPPL2 cells [8] [nM] | binding result [9]
1 | B1 | 10.1 | > 1000 | > 1000 | no binding (tested: 350 nM (highest concentration)) | ≤ 1 | 7.6 | 4.4 | – | –
2 | B2 | 9.2 | > 1000 | > 1000 | no binding (tested: 350 nM (highest concentration)) | – | 8.3 | 5.9 | 9.1 | no binding (tested: 350 nM (highest concentration))
3 | B3 | 3.3 | > 1000 | > 1000 | no binding (tested: 350 nM (highest concentration)) | – | 9.4 | 5.5 | 21.1 | no binding (tested: 350 nM (highest concentration))
